Measurements: patent US20250011431A1 (ADIVO, published 2025)

How the values were obtained:
[1] = target: T1, biotinylated cPD-L1_hFc (Sino Biological Cat. 70110-D02H-B) (canine; human, biotinylated (sites not given)); assay: Fab-capture ELISA: Fab on anti-canine Fab capture antibody, cPD-L1_hFc-Biotin titrated
T1 construct: also called cPD-L1-biotin; cPD-L1_hFc-Biotin; not shown: human Fc tag (hFc)
T1 chain: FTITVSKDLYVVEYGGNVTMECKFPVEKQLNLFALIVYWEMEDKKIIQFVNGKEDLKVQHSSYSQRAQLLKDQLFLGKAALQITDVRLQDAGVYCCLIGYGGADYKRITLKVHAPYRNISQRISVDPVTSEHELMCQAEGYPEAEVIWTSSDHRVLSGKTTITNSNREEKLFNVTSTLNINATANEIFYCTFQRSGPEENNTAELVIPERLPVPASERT
Protocol: The screening was performed as described in Example 4. Fab binders of CAN1005016 and CAN1005019 were loaded onto plate-bound anti-canine Fab capture antibody, followed by addition of titration series of cPD-L1_hFc-Biotin. Detection was performed with Streptavidin-HRP. The parental clone CAN1005001 was included as a control. Curve fits and EC50 values were analyzed with GraphPad Prism.

[2] = target: T2, PD-L1-his (canine); assay: grating-coupled interferometry (waveRAPID): antibody captured on PAG chip, PD-L1-his as analyte, 1:1 fit, 25 C
T2 construct: also called monovalent PD-L1 antigen; not shown: his tag
T2 chain: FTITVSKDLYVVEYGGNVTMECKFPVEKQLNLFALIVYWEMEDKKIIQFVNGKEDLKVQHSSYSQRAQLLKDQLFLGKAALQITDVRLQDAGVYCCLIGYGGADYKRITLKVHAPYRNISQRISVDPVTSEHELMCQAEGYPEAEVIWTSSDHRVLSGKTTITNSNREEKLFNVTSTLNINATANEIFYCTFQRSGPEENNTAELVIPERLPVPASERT
Protocol: To further characterize the kinetic properties of our candidates CAN1005016 and CAN1005019, the KD of our candidates was quantified using waveRAPID in a GCI system according to the procedure described below. The binding kinetics study was performed on the Creoptix® WAVEdelta system using a PAG sensor chip (Creoptix, a Malvern Panalytical brand). All experiments were performed with HBS-EP (Cytiva) as running buffer, at a temperature of 25° C. and sampling rate of 10 Hz. Data acquisition and evaluation were performed using WAVEcontrol software version 4.5.13.
Prior to ligand capturing, the sensor chip was conditioned by a 180 sec injection of 100 mM sodium borate, 1 M NaCl, pH 9 (Xantec). Antibody was diluted to 1 μg/ml in HBS-EP and captured to a density of =300 pg/mm2 on flow channel 2. Flow channel 1 was left blank to serve as a reference surface. For collection of kinetic data, PD-L1-his was diluted to 200 nM in HBS-EP and injected over ligand and reference surfaces in repeated analyte pulses of increasing duration (waveRAPID) at flowrate of 60 μl/min. PD-L1-his was injected for a total duration of 180 sec, followed by measuring complex-dissociation in running buffer for 30 min. Blank injections were performed to enable double referencing of the data and a 0.5% DMSO pulse injection (running buffer with 0.5% DMSO) was used as an analyte concentration modulation calibration curve. Data were corrected (X and Y offset, DMSO calibration, double referencing) and fitted with a simple 1:1 interaction model (global fit) to obtain kinetic parameters.

[3] = target: T1, biotinylated cPD-L1_hFc (Sino …); assay: Fab-capture ELISA: Fab from lysate on anti-canine Fab antibody, cPD-L1-biotin titrated
Protocol: To identify derivatives with a higher affinity, an alternative ELISA setup was used for screening to better normalize BEL expression levels and differentiate Fabs more efficiently with respect to their affinity. In contrast to the previous screening ELISA setup, a Maxisorp plate was coated over night with an anti-canine Fab antibody in a low density of 1 μg/ml. Coated plates were washed 3× with PBS-T, followed by loading with diluted BELs. After the BEL incubation and washing with PBS-T, dilution series of cPD-L1-biotin was added to the plate. Detection was performed with Streptavidin-HRP, followed by more stringent 5× washing with PBS-T and Quanta Blue substrate addition. Measurement was performed as described before (Example 1).

[4] = target: T3, cPD-L1_hFc (canine PD-L1 Fc-fusion protein; Sino Biological Cat. 70110-D02H) (canine; human); assay: ELISA ligand-binding inhibition, cPD-L1_hFc on the plate, competitor PD-1-Biotin (206 nM)
T3 construct: Bought product; also called canine PD-L1_hFc; cPD-L1 fusion protein; not shown: human Fc tag (hFc)
T3 chain: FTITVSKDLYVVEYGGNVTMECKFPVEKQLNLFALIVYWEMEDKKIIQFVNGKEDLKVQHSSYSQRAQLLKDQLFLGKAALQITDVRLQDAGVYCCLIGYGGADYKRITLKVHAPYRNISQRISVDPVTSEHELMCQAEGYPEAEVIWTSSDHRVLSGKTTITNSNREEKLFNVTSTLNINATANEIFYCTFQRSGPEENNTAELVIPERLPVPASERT
Protocol: cPD-L1 fusion proteins were directly immobilized on the plate overnight at 4° C., commonly in a concentration of 57 nM. For […] ELISA, black 384 well Maxisorp plates were used. The coated plates were washed 3× with PBS-T, followed by blocking with Chemiblocker (Merck-Millipore; 2170) for 1 h at RT. The blocked plates were washed 3× with PBS-T, followed by addition of titration-series of blocking antibodies and incubation for 1 h at RT. Subsequently plates were washed again 3× with PBS-T and PD-1-Biotin (1× biotinylated via Avi-tag; Sinobiological Cat.: 70109-D27H-B) was added and incubated for 1 h at RT, usually in a concentration of 4 μg/ml (206 nM). This concentration of canine PD-1-Biotin was previously identified as optimal by titrating the binding of PD-1-Biotin towards immobilized canine PD-L1_hFc. After incubation with the ligand PD-1, the plate was washed 3× with PBS-T and suitable detection reagent for the biotinylated PD-1, usually Streptavidin-HRP, was added and incubated for 1 h at RT. Subsequently, the plate was washed 5×, followed by addition of Quanta Blue and measurement as described above for the screening ELISA.

[5] = target: T4, canine PD-L1 on cells (canine); assay: flow cytometry on HEK293c18 cells transfected with canine PD-L1
T4 construct: also called wildtype canine PD-L1 on transfected HEK293c18 cells
T4 chain: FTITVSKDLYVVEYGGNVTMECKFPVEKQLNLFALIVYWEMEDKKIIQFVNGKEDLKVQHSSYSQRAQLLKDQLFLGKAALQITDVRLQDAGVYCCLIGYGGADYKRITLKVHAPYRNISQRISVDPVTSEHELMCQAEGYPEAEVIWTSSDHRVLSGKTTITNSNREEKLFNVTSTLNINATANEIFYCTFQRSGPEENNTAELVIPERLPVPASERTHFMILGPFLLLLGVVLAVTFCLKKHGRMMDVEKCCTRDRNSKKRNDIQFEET
Protocol: HEK293c18 cells were seeded in 6 well plates at a density of 1×10⁶ cells/well in DMEM+10% FCS. The next day, the transfection mix was prepared. […] Per well, 2 μg of the plasmid encoding for wildtype canine PD-L1 was diluted in 200 μl jetPRIME buffer. The solution was mixed and 4 μl of the transfection reagent was added, followed by mixing and centrifuging of the mixture. Then, the medium of the adherent cells is replaced by fresh medium and the transfection mix is carefully added onto the cells. The plate containing the transfected cells is placed back in the incubator and incubated for 24 h.
The cells were washed once by addition of 200 μl per well PBS/EDTA and centrifugation at 1500 rpm for 5 min. The supernatant was carefully decanted by holding the plate upside down above a waste and dried on a paper towel. Then, the cells were stained for dead cells with the dye Zombie violet (Biolegend; Cat.: 423114) diluted 1:500 in PBS/EDTA for 15 minutes at 4° C. in the dark. Subsequently, cells were washed with FACS Buffer (PBS/EDTA+2% FCS) as described above. Titration series of CAN1005016 and CAN1005019 usually ranging from 10 ng/ml to 10 μg/ml were prepared diluted in FACS buffer and added to the respective wells for a 30-minute incubation at 4° C. in the dark. […] Finally, the cells were washed again 3× and then resuspended in 200 μl FACS buffer and measured directly.

[6] = target: T3, cPD-L1_hFc (canine PD-L1 Fc-fusion …); assay: binding ELISA, IgG titrated on plate-bound cPD-L1_hFc
Protocol: cPD-L1 fusion proteins were directly immobilized on the plate, commonly in a concentration of 57 nM. For binding ELISA, black 384 well Maxisorp plates were used. This was performed overnight at 4° C. The coated plates were washed 3× with PBS-T, followed by blocking with Chemiblocker (Merck-Millipore; 2170) for 1 h at RT. After blocking, dilution series of the respective antibodies were added to the plate usually covering concentrations ranging from the single digit ng/ml to the single-digit ug/ml range. Antibodies were also incubated for 1 h at RT, followed by washing and by addition of suitable detection antibodies coupled to HRP. Measurement was carried out as described above for the Screening ELISA.

B1: CAN1005016 Fab (Fab, V domains shown)
VH: EVQLVESGGDLVKPGGTLRLSCVASGFTFSSYDMSWVRQSPGKGLQWVAVIWNTGSHAYYADAVKGRFTISRDNAKNTLYLQMNSLRAEDTAVYYCARGRQPRLVGTLDLWGQGTLVTVSS
VL: SYVLTQLPSVSVTLRQTARITCGGDSIGSKNVYWYQQKLGQAPVLIIYDDSSRPSGIPERFSGANSGNTATLTISGALAEDEADYYCQTYDSLVDVGVFGGGTQLTVL
[1]
  EC50: 0.087 nM

B2: CAN1005010H2 (as captured in the GCI measurement of anti-PD-L1 IgGs) (antibody, V domains shown)
VH: EVQLVESGGDLVKPGGTLRLSCVASGFTFSSYDMSWVRQSPGKGLQWVAVIWNTGSHAYYADAVKGRFTISRDNAKNTLYLQMNSLRAEDTAVYYCARGRQPRLVGTLDLWGQGTLVTVSS
VL: SYVLTQLPSVSVTLRQTARITCGGDSIGSKNVYWYQQKLGQAPVLIIYDDSSRPSGIPERFSGANSGNTATLTISGALAEDEADYYCSTYDSLLDVGVFGGGTQLTVL
notes: also called parental clone CAN1005010H2
[2]
  Kd: 2.8 nM

B3: CAN1005001L1 Fab (Fab, V domains shown)
VH: EVQLVESGGDLVKPAGSLRLSCVASGFTFSSYSMSWVRQAPEKGLQLVAGISSGGSSTYYTDAVKGRFTISRDNAKNTVYLQMNSLRAEDTAMYYCARGQGGRSSFDYWGQGTLVTVSS
VL: SYVLTQLPSVSVTLRQTARITCGGDSIGSKNVYWYQQKLGQAPVLIIYDDSSRPSGIPERFSGANSGNTATLTISGALAEDEADYYCQSYDIPLTGTVFGGGTQLTVL
notes: Fab from bacterial lysate
[3]
  EC50: 0.362 nM

B4: CAN1005010L1 Fab (Fab, V domains shown)
VH: EVQLVESGGDLVKPGGTLRLSCVASGFTFSSYDMSWVRQSPGKGLQWVAVIWNEGSSTYYADAVKGRFTISRDNAKNTLYLQMNSLRAEDTAVYYCARGRQPRLVGTLDLWGQGTLVTVSS
VL: SYVLTQLPSVSVTLRQTARITCGGDSIGSKNVYWYQQKLGQAPVLIIYDDSSRPSGIPERFSGANSGNTATLTISGALAEDEADYYCQTYDSLVDVGVFGGGTQLTVL
notes: Fab from bacterial lysate
[3]
  EC50: 0.139 nM

B5: CAN1005001H3 Fab (Fab, V domains shown)
VH: EVQLVESGGDLVKPAGSLRLSCVASGFTFSSYSMSWVRQAPEKGLQLVAWIDAYAGVTSYANAVKGRFTISRDNAKNTVYLQMNSLRAEDTAMYYCARGQGGRSSFDYWGQGTLVTVSS
VL: SYVLTQLPSVSVTLRQTARITCGGDSIGSKNVYWYQQKLGQAPVLIIYDDSSRPSGIPERFSGANSGNTATLTISGALAEDEADYYCQSYAMPLTGTVFGGGTQLTVL
notes: Fab from bacterial lysate
[3]
  EC50: 0.097 nM

B6: CAN1005019 Fab (Fab, V domains shown)
VH: EVQLVESGGDLVKPAGSLRLSCVASGFTFSSYSMSWVRQAPEKGLQLVAWIDAYAGVTSYANAVKGRFTISRDNAKNTVYLQMNSLRAEDTAMYYCARGQGGRSSFDYWGQGTLVTVSS
VL: SYVLTQLPSVSVTLRQTARITCGGDSIGSKNVYWYQQKLGQAPVLIIYDDSSRPSGIPERFSGANSGNTATLTISGALAEDEADYYCQSYDIPLTGTVFGGGTQLTVL
[1]
  EC50: 0.138 nM

B7: CAN1005001 Fab (Fab, V domains shown)
VH: EVQLVESGGDLVKPAGSLRLSCVASGFTFSSYSMSWVRQAPEKGLQLVAGISSGGSSTYYTDAVKGRFTISRDNAKNTVYLQMNSLRAEDTAMYYCARGQGGRSSFDYWGQGTLVTVSS
VL: SYVLTQLPSVSVTLRQTARITCGGDSIGSKNVYWYQQKLGQAPVLIIYDDSSRPSGIPERFSGANSGNTATLTISGALAEDEADYYCQSYAMPLTGTVFGGGTQLTVL
notes: also called parental clone CAN1005001
[3]
  EC50: 0.82 nM

B8: CAN1005010H2 Fab (Fab, V domains shown)
VH: EVQLVESGGDLVKPGGTLRLSCVASGFTFSSYDMSWVRQSPGKGLQWVAVIWNTGSHAYYADAVKGRFTISRDNAKNTLYLQMNSLRAEDTAVYYCARGRQPRLVGTLDLWGQGTLVTVSS
VL: SYVLTQLPSVSVTLRQTARITCGGDSIGSKNVYWYQQKLGQAPVLIIYDDSSRPSGIPERFSGANSGNTATLTISGALAEDEADYYCSTYDSLLDVGVFGGGTQLTVL
notes: Fab from bacterial lysate
[3]
  EC50: 0.121 nM

B9: CAN1005019 IgG (antibody, V domains shown)
VH: EVQLVESGGDLVKPAGSLRLSCVASGFTFSSYSMSWVRQAPEKGLQLVAWIDAYAGVTSYANAVKGRFTISRDNAKNTVYLQMNSLRAEDTAMYYCARGQGGRSSFDYWGQGTLVTVSS
VL: SYVLTQLPSVSVTLRQTARITCGGDSIGSKNVYWYQQKLGQAPVLIIYDDSSRPSGIPERFSGANSGNTATLTISGALAEDEADYYCQSYDIPLTGTVFGGGTQLTVLG
notes: also called biotinylated CAN1005019
[4]
  IC50: 1.32 nM
[5]
  EC50: 11.8 nM
[2]
  Kd: 1.7 nM
[6]
  EC50: 0.049 nM
